Data taken from patent US20030040612A1 (MOUNT SINAI SCHOOL OF MEDICINE, published 2003).

What was measured:
[1] = biological target: SNT-1 PTB domain (residues 11-140 of SEQ ID NO:1) (human) (UniProt Q8WU20); experiment: method not stated
[2] = biological target: T1, juxtamembrane region of hFGFR1 as GAL4 DNA binding domain (BD) fusion protein, wild type (called hFGFR1 (human); SEQ ID NO:2 is …); experiment: yeast two-hybrid, colony growth on His-, Leu-, Trp- medium
T1 construct: Yeast two-hybrid construct; also called wild type hFGFR1
Method: Mutagenesis and Yeast Two-Hybrid Binding Assays: The yeast two-hybrid binding studies of the SNT-1 PTB domain binding to hFGFR1 or tyrosine-phosphorylated TRK were performed as described previously [Xu et al., J. Biol. Chem. 273:17987-17990 (1998)]. Briefly, SNT-1 cDNA fragments were cloned into the pACT2 expression vector (Clontech) for expression as GAL4 DNA activation domain (AD) fusion proteins followed by C-terminal AU1-epitope tags. The juxtamembrane region of hFGFR1 was cloned into the pAS2-1 expression vector (Clontech) for expression as a GAL4 DNA binding domain (BD) fusion protein. This plasmid served as a template for site-directed mutagenesis of hFGFR1 using the QuikChange kit (Stratagene). DNA sequencing confirmed the mutations. AD and BD plasmids were co-transformed into Saccharomyces cerevisiae strain pJ69-4A and plated onto selective media. The synthetic medium lacking the amino acids Leu and Trp (Leu⁻, Trp⁻) selected for plasmid uptake. […] Levels of protein interaction were scored by relative colony growth on these plates. […] Similarly, expression of wild type and mutant hFGFR1 was detected by immunoprecipitation with a rabbit polyclonal antibody specific for BD (Santa Cruz Biotech) and western blotting with mouse monoclonal anti-BD antibody (Santa Cruz Biotech).

[3] = biological target: T2, SNT-1 PTB domain (residues 11-140 of SEQ ID NO:1) (human, UniProt Q8WU20 11-140); experiment: isothermal titration calorimetry (ITC)
T2 construct: Recombinant from E. coli, isotope labelled for NMR; His6 tag cleaved with thrombin; Used in NMR and ITC; also called PTB Domain of SNT-1; SNT PTB domain
T2 sequence: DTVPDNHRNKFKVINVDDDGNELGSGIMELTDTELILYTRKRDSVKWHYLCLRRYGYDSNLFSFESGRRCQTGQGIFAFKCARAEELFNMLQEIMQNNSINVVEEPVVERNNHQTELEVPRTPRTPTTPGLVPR

Molecule: tyrosine-phosphorylated peptide LVIAGNPApYRS (SEQ ID NO:4)
- Kd [1]: 1 µM
- fold higher affinity than for the FGFR derived peptide of SEQ ID NO:3 [1]: 10 fold

B1: truncated SNT-1 PTB domain lacking the β8 region (residues 2-111), GAL4 AD fusion (other, not shown: large carriers; small tags and cut ends)
chain: GSCCSCPDKDTVPDNHRNKFKVINVDDDGNELGSGIMELTDTELILYTRKRDSVKWHYLCLRRYGYDSNLFSFESGRRCQTGQGIFAFKCARAEELFNMLQEIMQNNSIN
notes: Yeast two-hybrid construct; also called SNT-1 PTB domain protein lacking the β8 strand
- binding result [2]: no binding

B2: hFGFR1 peptide, 22-residue peptide derived from the juxtamembrane region of hFGFR1 (residues 409-430 of SEQ ID NO:2), HSQMAVHKLAKSIPLRRQVTVS (SEQ ID NO:3) (peptide)
peptide: HSQMAVHKLAKSIPLRRQVTVS
notes: Synthetic peptide, not phosphorylated; also called FGFR peptide; FGF receptor peptide
- Kd [3]: ~10 µM
